No end group written: not given here. *: point of attachment. FITC = O=C1OC2(c3ccc(O)cc3Oc3cc(O)ccc32)c2ccc(NC(=S)*)cc21
Assays:
[1] = biological target: GFP-GR T524A S617A, full-length GR double mutant (human) (UniProt P04150); test: co-IP; GFP-Trap agarose beads on RIPA lysates of transfected U2OS or HEK293 cells stimulated with forskolin or calyculin A; blot with anti-pan 14-3-3 antibody
[2] = biological target: T1, human 14-3-3ζ, full length, 6His-Linker-h14-3-3 (human, UniProt P63104 1-245); test: FP
T1 chain: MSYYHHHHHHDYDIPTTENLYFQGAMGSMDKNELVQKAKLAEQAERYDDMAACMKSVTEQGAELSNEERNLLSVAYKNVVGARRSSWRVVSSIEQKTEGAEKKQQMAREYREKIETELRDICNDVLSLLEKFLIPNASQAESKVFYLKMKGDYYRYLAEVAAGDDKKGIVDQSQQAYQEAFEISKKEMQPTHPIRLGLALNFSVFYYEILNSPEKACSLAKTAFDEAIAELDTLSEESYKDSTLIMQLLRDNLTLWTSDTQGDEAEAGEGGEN

[3] = biological target: T1, human 14-3-3ζ, full length, …; test: SPR

Sequence of GFP-GR T524A S617A, full-length GR double mutant (human) (P04150 whole entry T524A/S617A): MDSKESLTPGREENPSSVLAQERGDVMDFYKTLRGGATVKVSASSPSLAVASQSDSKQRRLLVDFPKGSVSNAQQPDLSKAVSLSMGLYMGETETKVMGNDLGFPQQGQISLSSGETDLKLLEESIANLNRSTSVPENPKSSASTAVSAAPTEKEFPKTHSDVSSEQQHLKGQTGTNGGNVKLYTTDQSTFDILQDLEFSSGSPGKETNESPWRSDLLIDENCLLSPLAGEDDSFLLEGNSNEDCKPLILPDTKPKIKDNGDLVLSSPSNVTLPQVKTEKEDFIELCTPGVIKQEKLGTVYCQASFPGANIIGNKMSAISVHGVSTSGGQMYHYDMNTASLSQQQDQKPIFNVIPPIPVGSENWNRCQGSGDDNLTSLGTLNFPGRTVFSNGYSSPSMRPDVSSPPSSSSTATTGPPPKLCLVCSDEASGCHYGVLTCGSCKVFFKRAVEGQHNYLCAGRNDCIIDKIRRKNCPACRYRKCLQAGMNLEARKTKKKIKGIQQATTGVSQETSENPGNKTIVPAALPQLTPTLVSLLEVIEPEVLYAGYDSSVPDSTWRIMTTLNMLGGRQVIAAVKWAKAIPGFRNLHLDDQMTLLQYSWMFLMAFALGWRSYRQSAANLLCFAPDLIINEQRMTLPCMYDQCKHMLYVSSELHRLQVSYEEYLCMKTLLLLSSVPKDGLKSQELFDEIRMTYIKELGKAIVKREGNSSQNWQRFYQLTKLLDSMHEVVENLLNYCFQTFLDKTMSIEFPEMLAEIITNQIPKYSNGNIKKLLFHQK

Molecule: 14-3-3 proteins, endogenous (detected with anti-pan 14-3-3 antibody) (from UniProt P63104 1-245) (natural protein)
- decrease of the interaction against the WT GR [1]: 35%

B1: GR_pS83-pT524, FITC-labelled 31-mer doubly phosphorylated peptide (peptide)
peptide: {FITC}-DLSKAVSLSMGLYGGGGGKTIVPATLPQLTP
modifications: also: phosphoserine at S83 and phosphothreonine at T524, places in chain not given here
- Kd [2]: 900 nM

B2: GR_pT524-pS617, 31-mer doubly phosphorylated peptide used for SPR and crystallography (peptide)
peptide: KTIVPATLPQLTPGGGGGRSYRQSSANLLCF
modifications: also: phosphothreonine at T524 and phosphoserine at S617, places in chain not given here
- Kd [3]: 30 nM

From paper PMC8080530, “Glucocorticoid receptor Thr524 phosphorylation by MINK1 induces interactions with 14-3-3 protein regulators” (The Journal of Biological Chemistry, 2021)
